Source: publication PMC5560549

Key:
[1] = biological target: human FcRn (Sino Biological), biotinylated (UniProt P55899); test: SPR (Biacore 3000); settings: pH 6.0, not stated for this buffer (the HBS-EP+ used in the PCSK9 experiments contained 150 mM NaCl), HBS-EP buffer pH 6.0. Its composition is not given. The HBS-EP+ of the PCSK9 SPR section was 10 mM HEPES, 3
[2] = biological target: human FcRn (Sino Biological), biotinylated (UniProt P55899); test: ELISA; settings: 37°C (incubations), PBS (concentration not stated), PBST (PBS + 0.05% (v/v) Tween 20) adjusted to pH 6.0 or pH 7.4 for the washes. The pH of the antibody dilution buffer is
[3] = biological target: human FcRn (neonatal Fc receptor), biotinylated (human) (UniProt P55899); test: SPR; Biacore 3000; biotinylated FcRn captured on streptavidin coupled to a CM5 chip; antibody 0-10 nM in HBS-EP pH 6.0 injected at 50 ul/min, 3 min association, 3 min dissociation; regeneration with HBS-EP pH 8.0; 1:1 Langmuir model

ka [1] | kd [1] | EC50 ([2]; pH 6.0) | EC50 ([2]; pH 7.4) | Kd [3] | koff [3] | kon [3] | Substance
 |  |  |  | 4.88 nM | 0.00617 s⁻¹ | 1.27e+06 M⁻¹ s⁻¹ | F0016A, a human IgG1 anti-PCSK9 mAb (alirocumab) (antibody)
1.43e+06 M⁻¹ s⁻¹ | 0.00302 s⁻¹ | 3.47 µg/mL | 12.2 µg/mL |  |  |  | F0016B (alirocumab Fc T251Q/M429L) T251Q;M429L
 |  |  |  | 1.76 nM | 0.0024 s⁻¹ | 1.36e+06 M⁻¹ s⁻¹ | F0016C, Fc variant M429L/N435S of F0016A (antibody)

The remaining lines, values behind:

Substance | ka [1] | kd [1] | EC50 ([2]; pH 6.0) | EC50 ([2]; pH 7.4) | Kd [3] | koff [3] | kon [3]
F0016A (alirocumab sequence, wild-type Fc) | 1.27e+06 M⁻¹ s⁻¹ | 0.00617 s⁻¹ | 30.4 µg/mL | 45.1 µg/mL |  |  | 
F0016B, Fc variant T251Q/M429L of F0016A (antibody) |  |  |  |  | 2.11 nM | 0.00302 s⁻¹ | 1.43e+06 M⁻¹ s⁻¹
F0016C (alirocumab Fc M429L/N435S) M429L;N435S | 1.36e+06 M⁻¹ s⁻¹ | 0.0024 s⁻¹ | 1.56 µg/mL | 16.5 µg/mL |  |  | 
F0016D (alirocumab Fc M253Y/S255T/T257E) M253Y;S255T;T257E | 1.05e+06 M⁻¹ s⁻¹ | 0.00201 s⁻¹ | 1.75 µg/mL | 8.87 µg/mL |  |  | 
F0016D, Fc variant M253Y/S255T/T257E of F0016A (antibody) |  |  |  |  | 1.91 nM | 0.00201 s⁻¹ | 1.05e+06 M⁻¹ s⁻¹
